Results taken from PMC6420783.

Columns and labels:
[1] = target: Ape1WT (Homo sapiens, UniProt P27695 1-318); assay: SPR
[2] = target: NPM1 (UniProt P06748 1-294); assay: SPR
Chain of NPM1 (P06748 whole entry): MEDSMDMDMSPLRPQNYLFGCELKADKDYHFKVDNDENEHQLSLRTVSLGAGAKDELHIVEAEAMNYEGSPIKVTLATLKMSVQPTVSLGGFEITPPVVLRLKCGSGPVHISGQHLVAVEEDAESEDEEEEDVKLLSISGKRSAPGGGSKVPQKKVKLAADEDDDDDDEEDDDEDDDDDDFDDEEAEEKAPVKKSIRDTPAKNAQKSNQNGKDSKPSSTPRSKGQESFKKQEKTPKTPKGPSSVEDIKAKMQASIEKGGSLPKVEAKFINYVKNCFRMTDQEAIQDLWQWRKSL

Chain of Ape1WT (P27695 whole entry): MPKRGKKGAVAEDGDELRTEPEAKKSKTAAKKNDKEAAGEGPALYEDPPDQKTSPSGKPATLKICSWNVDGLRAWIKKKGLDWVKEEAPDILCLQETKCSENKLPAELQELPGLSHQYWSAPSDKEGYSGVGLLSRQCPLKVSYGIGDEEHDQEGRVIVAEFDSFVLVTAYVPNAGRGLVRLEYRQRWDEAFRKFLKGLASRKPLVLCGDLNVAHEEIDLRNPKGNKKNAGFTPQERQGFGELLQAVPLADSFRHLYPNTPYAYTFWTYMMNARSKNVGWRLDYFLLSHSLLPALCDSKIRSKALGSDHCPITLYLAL

| Binder | Kd [1] [nM] | Kd [2] [nM] |
| --- | --- | --- |
| TTTTTTTTTTTTTTTTTTTTTTT (ssDNA) [Biot-Poly dT] | 170 | 255 |
| TAGGGTTAGGGTTAGGGTTAGGG (structured_DNA) [Biot-Nat] | 31.6 | 147 |
